Measured values taken from patent publication WO2010082134A1 (dated 2010).

T1: B. anthracis lethal factor (LF) (Bacillus anthracis, UniProt P15917 34-809)
T1 sequence: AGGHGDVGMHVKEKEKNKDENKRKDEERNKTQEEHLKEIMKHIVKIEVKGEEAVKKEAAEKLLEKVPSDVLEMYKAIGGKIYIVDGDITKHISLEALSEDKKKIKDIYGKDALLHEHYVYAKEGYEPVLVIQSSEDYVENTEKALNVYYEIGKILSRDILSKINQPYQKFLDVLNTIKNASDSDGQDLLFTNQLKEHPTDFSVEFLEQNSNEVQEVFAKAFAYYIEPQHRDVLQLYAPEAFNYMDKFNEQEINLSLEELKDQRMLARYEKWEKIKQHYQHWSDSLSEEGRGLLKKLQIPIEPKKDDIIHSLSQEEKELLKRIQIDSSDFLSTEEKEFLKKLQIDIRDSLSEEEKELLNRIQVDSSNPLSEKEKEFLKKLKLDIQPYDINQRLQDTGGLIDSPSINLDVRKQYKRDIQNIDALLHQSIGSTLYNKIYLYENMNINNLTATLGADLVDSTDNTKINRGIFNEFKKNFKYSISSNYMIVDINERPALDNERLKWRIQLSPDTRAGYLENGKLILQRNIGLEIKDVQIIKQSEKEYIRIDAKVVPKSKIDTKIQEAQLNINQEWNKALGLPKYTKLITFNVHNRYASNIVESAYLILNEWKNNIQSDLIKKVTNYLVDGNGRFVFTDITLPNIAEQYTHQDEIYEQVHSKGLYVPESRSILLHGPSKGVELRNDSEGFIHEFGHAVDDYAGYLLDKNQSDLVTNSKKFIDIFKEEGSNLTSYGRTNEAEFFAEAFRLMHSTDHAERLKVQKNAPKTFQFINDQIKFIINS


How the values were obtained:
[1] = biological target: B. anthracis protective antigen (PA) (Bacillus anthracis, UniProt P13423 30-764); experiment: hybridoma screening by ELISA for anti-PA antibodies
Sequence of B. anthracis protective antigen (PA) (P13423 30-764 limits assumed): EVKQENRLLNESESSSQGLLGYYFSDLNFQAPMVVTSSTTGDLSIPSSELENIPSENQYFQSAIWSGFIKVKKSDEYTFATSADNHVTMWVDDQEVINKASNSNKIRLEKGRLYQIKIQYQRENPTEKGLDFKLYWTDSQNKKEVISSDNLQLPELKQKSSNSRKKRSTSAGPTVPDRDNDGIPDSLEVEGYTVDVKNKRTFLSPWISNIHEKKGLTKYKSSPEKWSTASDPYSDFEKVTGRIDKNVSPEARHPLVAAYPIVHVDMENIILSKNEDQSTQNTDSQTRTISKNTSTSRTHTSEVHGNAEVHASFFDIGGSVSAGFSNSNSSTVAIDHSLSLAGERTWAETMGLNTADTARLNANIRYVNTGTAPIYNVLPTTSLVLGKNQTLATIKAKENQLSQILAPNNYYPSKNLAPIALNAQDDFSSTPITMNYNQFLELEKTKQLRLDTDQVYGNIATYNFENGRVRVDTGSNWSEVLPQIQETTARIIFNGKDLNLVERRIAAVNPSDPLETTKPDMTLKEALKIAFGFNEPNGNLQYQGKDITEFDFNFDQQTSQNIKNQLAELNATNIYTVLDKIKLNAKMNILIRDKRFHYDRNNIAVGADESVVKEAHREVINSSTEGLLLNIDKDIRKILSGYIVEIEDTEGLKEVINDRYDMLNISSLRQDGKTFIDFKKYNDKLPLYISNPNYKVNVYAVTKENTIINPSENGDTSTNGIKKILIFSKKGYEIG

[2] = biological target: T1, B. anthracis lethal factor (LF); experiment: hybridoma screening by ELISA for anti-LF antibodies

Binder | binding result [1] | binding result [2]
human monoclonal antibody IQNPA (antibody, V domains shown) VH: QVQLVQSGAEVKKPGASVKVSCKASGYTFTSNAIQWVRQAPGQRLEWVGWINGGDGNTKYSQKFQGRVTISRDISASTAYMELSSLRSEDTAVYYCARHRLQRGGFDPWGQGTLVTVSS VL: EIVLTQSPGTLSLSPGERATLSCRASQSVSYSSLAWYQQKPGQAPSLLIYGASSRATGIPDRFSGSGSGPDFTLTISRLEPEDFAVYYCQHYGNSPYTFGQGTKLEIKR | binds | –
human monoclonal antibody IQNLF (antibody, V domains shown) VH: EVQLLESGGGLVQPGGSLRLSCSGSGFMFSSYAMSWVRQAPGKGLEWVSGISGSGGTTNYADSVKGRFTISRDNSKNTLYMQMNSLRAEDTAVYYCAKDGVYGRLGGSDYWGQGTLVTVSS VL: EIVLTQSPDFQSVSPKEKVTITCRASQSVGSSLHWYQQKPDQSPKLLIKYASQSFSGVPSRFSGSGSGTDFTLTINSLETEDAATYYCHQSSSLPLTFGGGTKVEIKR | – | binds
